Laboratory results from patent US20150004162A1.

Target: human DR5 (human) (UniProt O14763)
Test: ELISA, half-log dilutions on wells coated with 1 microgram/ml human DR5, anti-mouse polyclonal antibody-HRP

Chain of human DR5 (human) (O14763 other isoform, or with tags, fused parts or gaps limits assumed): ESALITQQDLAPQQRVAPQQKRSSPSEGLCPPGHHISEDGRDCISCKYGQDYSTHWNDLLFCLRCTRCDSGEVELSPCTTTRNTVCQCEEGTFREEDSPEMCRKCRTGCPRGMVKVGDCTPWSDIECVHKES

- EC50: 65.2 pM
Substance: MAB631 (antibody)
